This is an account of results in patent publication US20100272723A1 (Xencor, published 2010).

The chains are these.
T1: human CD19 (human, UniProt P15391 20-556)
T1 construct: also called B-cell surface antigen B4; B-cell antigen CD19
T1 sequence: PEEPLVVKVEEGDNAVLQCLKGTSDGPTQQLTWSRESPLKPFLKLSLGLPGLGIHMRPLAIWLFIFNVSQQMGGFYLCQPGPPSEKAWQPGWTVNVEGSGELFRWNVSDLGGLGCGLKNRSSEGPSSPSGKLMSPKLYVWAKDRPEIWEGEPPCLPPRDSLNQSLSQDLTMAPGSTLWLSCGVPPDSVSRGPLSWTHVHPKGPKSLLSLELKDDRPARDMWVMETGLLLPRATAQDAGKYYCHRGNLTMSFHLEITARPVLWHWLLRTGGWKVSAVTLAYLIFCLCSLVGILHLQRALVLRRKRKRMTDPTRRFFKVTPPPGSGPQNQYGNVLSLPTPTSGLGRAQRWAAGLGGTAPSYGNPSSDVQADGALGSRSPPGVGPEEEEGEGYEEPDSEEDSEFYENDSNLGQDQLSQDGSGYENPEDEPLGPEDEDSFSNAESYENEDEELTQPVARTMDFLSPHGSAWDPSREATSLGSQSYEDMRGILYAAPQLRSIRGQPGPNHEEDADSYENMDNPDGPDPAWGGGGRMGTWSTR

B1: H1.52 / L1 (antibody, V domains shown)
VH: EVQLVESGGGLVKPGGSLKLSCAASGYTFTSYVMHWVRQAPGKGLEWIGYINPYNDGTKYNEKFQGRVTISSDKSISTAYMELSSLRSEDTAMYYCARGTYYYGTRVFDYWGQGTLVTVSS
VL: DIVMTQSPATLSLSPGERATLSCRSSKSLLNSNGNTYLYWFQQKPGQSPQLLIYRMSNLASGVPDRFSGSGSGTEFTLTISSLEPEDFAVYYCMQHLEYPFTFGAGTKLEIK
notes: vs H1L1 (Kabat): VH S100cT; also called 4G7 H1.52_L1
B2: H1.52 / L1.149 (antibody, V domains shown)
VH: EVQLVESGGGLVKPGGSLKLSCAASGYTFTSYVMHWVRQAPGKGLEWIGYINPYNDGTKYNEKFQGRVTISSDKSISTAYMELSSLRSEDTAMYYCARGTYYYGTRVFDYWGQGTLVTVSS
VL: DIVMTQSPATLSLSPGERATLSCRSSKSLQNSNGNTYLYWFQQKPGQSPQLLIYRMSNLNSGVPDRFSGSGSGTEFTLTISSLEPEDFAVYYCMQHLEYPITFGAGTKLEIK
notes: vs H1L1 (Kabat): VH S100cT; VL L27cQ/A55N/F96I; also called 4G7 H1.52_L1.149
B3: H1.52 / L1.139 (antibody, V domains shown)
VH: EVQLVESGGGLVKPGGSLKLSCAASGYTFTSYVMHWVRQAPGKGLEWIGYINPYNDGTKYNEKFQGRVTISSDKSISTAYMELSSLRSEDTAMYYCARGTYYYGTRVFDYWGQGTLVTVSS
VL: DIVMTQSPATLSLSPGERATLSCRSSKSLLNVNGNTYLYWFQQKPGQSPQLLIYRMSNLASGVPDRFSGSGSGTEFTLTISSLEPEDFAVYYCMQHLEYPNTFGAGTKLEIK
notes: vs H1L1 (Kabat): VH S100cT; VL S27eV/F96N; also called 4G7 H1.52_L1.139
B4: H1 / L1.11 (antibody, V domains shown)
VH: EVQLVESGGGLVKPGGSLKLSCAASGYTFTSYVMHWVRQAPGKGLEWIGYINPYNDGTKYNEKFQGRVTISSDKSISTAYMELSSLRSEDTAMYYCARGTYYYGSRVFDYWGQGTLVTVSS
VL: DIVMTQSPATLSLSPGERATLSCRSSKSLLNSNGNTYLYWFQQKPGQSPQLLIYRMSNLASGVPDRFSGSGSGTEFTLTISSLEPEDFAVYYCMQHLNYPFTFGAGTKLEIK
notes: vs H1L1 (Kabat): VL E93N; also called 4G7 H1_L1.11
B5: H1.52 / L1.160 (antibody, V domains shown)
VH: EVQLVESGGGLVKPGGSLKLSCAASGYTFTSYVMHWVRQAPGKGLEWIGYINPYNDGTKYNEKFQGRVTISSDKSISTAYMELSSLRSEDTAMYYCARGTYYYGTRVFDYWGQGTLVTVSS
VL: DIVMTQSPATLSLSPGERATLSCRSSKSLQNVNANTYLYWFQQKPGQSPQLLIYRMSNLNSGVPDRFSGSGSGTEFTLTISSLEPEDFAVYYCMQHLEYPITFGAGTKLEIK
notes: vs H1L1 (Kabat): VH S100cT; VL L27cQ/S27eV/G29A/A55N/F96I; also called 4G7 H1.52_L1.160
B6: H1.60 / L1 (antibody, V domains shown)
VH: EVQLVESGGGLVKPGGSLKLSCAASGYTFTSYVMHWVRQAPGKGLEWIGYINPYNDGTKYNEKFQGRVTISSDKSISTAYMELSSLRSEDTAMYYCARGTYYYGLRVFDYWGQGTLVTVSS
VL: DIVMTQSPATLSLSPGERATLSCRSSKSLLNSNGNTYLYWFQQKPGQSPQLLIYRMSNLASGVPDRFSGSGSGTEFTLTISSLEPEDFAVYYCMQHLEYPFTFGAGTKLEIK
notes: vs H1L1 (Kabat): VH S100cL; also called 4G7 H1.60_L1
B7: H1.52 / L1.138 (antibody, V domains shown)
VH: EVQLVESGGGLVKPGGSLKLSCAASGYTFTSYVMHWVRQAPGKGLEWIGYINPYNDGTKYNEKFQGRVTISSDKSISTAYMELSSLRSEDTAMYYCARGTYYYGTRVFDYWGQGTLVTVSS
VL: DIVMTQSPATLSLSPGERATLSCRSSKSLLNVNGNTYLYWFQQKPGQSPQLLIYRMSNLNSGVPDRFSGSGSGTEFTLTISSLEPEDFAVYYCMQHLEYPFTFGAGTKLEIK
notes: vs H1L1 (Kabat): VH S100cT; VL S27eV/A55N; also called 4G7 H1.52_L1.138
B8: H1.62 / L1 (antibody, V domains shown)
VH: EVQLVESGGGLVKPGGSLKLSCAASGYTFTSYVMHWVRQAPGKGLEWIGYINPYNDGTKYNEKFQGRVTISSDKSISTAYMELSSLRSEDTAMYYCARGTYYYGSEVFDYWGQGTLVTVSS
VL: DIVMTQSPATLSLSPGERATLSCRSSKSLLNSNGNTYLYWFQQKPGQSPQLLIYRMSNLASGVPDRFSGSGSGTEFTLTISSLEPEDFAVYYCMQHLEYPFTFGAGTKLEIK
notes: vs H1L1 (Kabat): VH R100dE; also called 4G7 H1.62_L1
B9: H1.78 / L1 (antibody, V domains shown)
VH: EVQLVESGGGLVKPGGSLKLSCAASGYTFTSYVMHWVRQAPGKGLEWIGYINPYNAGTKYNEKFQGRVTISSDKSISTAYMELSSLRSEDTAMYYCARGTYYYGSRVFDYWGQGTLVTVSS
VL: DIVMTQSPATLSLSPGERATLSCRSSKSLLNSNGNTYLYWFQQKPGQSPQLLIYRMSNLASGVPDRFSGSGSGTEFTLTISSLEPEDFAVYYCMQHLEYPFTFGAGTKLEIK
notes: vs H1L1 (Kabat): VH D55A; also called 4G7 H1.78_L1
B10: H1.109 / L1 (antibody, V domains shown)
VH: EVQLVESGGGLVKPGGSLKLSCAASGYTFTSYVMHWVRQAPGKGLEWIGYINPYNDGPKYNEKFQGRVTISSDKSISTAYMELSSLRSEDTAMYYCARGTYYYGSRVFDYWGQGTLVTVSS
VL: DIVMTQSPATLSLSPGERATLSCRSSKSLLNSNGNTYLYWFQQKPGQSPQLLIYRMSNLASGVPDRFSGSGSGTEFTLTISSLEPEDFAVYYCMQHLEYPFTFGAGTKLEIK
notes: vs H1L1 (Kabat): VH T57P; also called 4G7 H1.109_L1
B11: H1.65 / L1 (antibody, V domains shown)
VH: EVQLVESGGGLVKPGGSLKLSCAASGYTFTSYVMHWVRQAPGKGLEWIGYINPYNDGTKYNEKFQGRVTISSDKSISTAYMELSSLRSEDTAMYYCARGTYYYGSSVFDYWGQGTLVTVSS
VL: DIVMTQSPATLSLSPGERATLSCRSSKSLLNSNGNTYLYWFQQKPGQSPQLLIYRMSNLASGVPDRFSGSGSGTEFTLTISSLEPEDFAVYYCMQHLEYPFTFGAGTKLEIK
notes: vs H1L1 (Kabat): VH R100dS; also called 4G7 H1.65_L1
B12: H1 / L1.124 (antibody, V domains shown)
VH: EVQLVESGGGLVKPGGSLKLSCAASGYTFTSYVMHWVRQAPGKGLEWIGYINPYNDGTKYNEKFQGRVTISSDKSISTAYMELSSLRSEDTAMYYCARGTYYYGSRVFDYWGQGTLVTVSS
VL: DIVMTQSPATLSLSPGERATLSCRSSKSLLNSNGNTYLYWFQQKPGQSPQLLIYRMSNWASGVPDRFSGSGSGTEFTLTISSLEPEDFAVYYCMQHLEYPFTFGAGTKLEIK
notes: vs H1L1 (Kabat): VL L54W; also called 4G7 H1_L1.124
B13: H1.52 / L1.155 (antibody, V domains shown)
VH: EVQLVESGGGLVKPGGSLKLSCAASGYTFTSYVMHWVRQAPGKGLEWIGYINPYNDGTKYNEKFQGRVTISSDKSISTAYMELSSLRSEDTAMYYCARGTYYYGTRVFDYWGQGTLVTVSS
VL: DIVMTQSPATLSLSPGERATLSCRSSKSLQNVNGNTYLYWFQQKPGQSPQLLIYRMSNLNSGVPDRFSGSGSGTEFTLTISSLEPEDFAVYYCMQHLEYPITFGAGTKLEIK
notes: vs H1L1 (Kabat): VH S100cT; VL L27cQ/S27eV/A55N/F96I; also called 4G7 H1.52_L1.155
B14: H1.52 / L1.143 (antibody, V domains shown)
VH: EVQLVESGGGLVKPGGSLKLSCAASGYTFTSYVMHWVRQAPGKGLEWIGYINPYNDGTKYNEKFQGRVTISSDKSISTAYMELSSLRSEDTAMYYCARGTYYYGTRVFDYWGQGTLVTVSS
VL: DIVMTQSPATLSLSPGERATLSCRSSKSLQNSNGNTYLYWFQQKPGQSPQLLIYRMSNLNSGVPDRFSGSGSGTEFTLTISSLEPEDFAVYYCMQHLEYPFTFGAGTKLEIK
notes: vs H1L1 (Kabat): VH S100cT; VL L27cQ/A55N; also called 4G7 H1.52_L1.143
B15: H1.52 / L1.145 (antibody, V domains shown)
VH: EVQLVESGGGLVKPGGSLKLSCAASGYTFTSYVMHWVRQAPGKGLEWIGYINPYNDGTKYNEKFQGRVTISSDKSISTAYMELSSLRSEDTAMYYCARGTYYYGTRVFDYWGQGTLVTVSS
VL: DIVMTQSPATLSLSPGERATLSCRSSKSLQNSNGNTYLYWFQQKPGQSPQLLIYRMSNLASGVPDRFSGSGSGTEFTLTISSLEPEDFAVYYCMQHLEYPITFGAGTKLEIK
notes: vs H1L1 (Kabat): VH S100cT; VL L27cQ/F96I; also called 4G7 H1.52_L1.145

The target of this assay is T1, human CD19. Kind of assay: binding affinity relative to the parent H1L1 mAb (Example 5); assay and format not named on the sheet.
For B1, the Fold change binding is 3.22 fold.

Turning to B2, the Fold change binding worked out at 8.6 fold.

As for B3, the Fold change binding is 1.8 fold.

As for B4, the Fold change binding came out at 1.59 fold.

B5: the Fold change binding is 4.18 fold.

In the case of B6, the Fold change binding came to 1.56 fold.

Take B7: the Fold change binding amounted to 3.93 fold.

For B8, the Fold change binding was 1.65 fold.

B9: the Fold change binding came out at 1.14 fold.

On to B10, for which the Fold change binding was 1.52 fold.

Take B11: the Fold change binding was determined as 1.41 fold.

Regarding B12, the Fold change binding stood at 1.47 fold.

For the molecule B13, the Fold change binding amounted to 6.16 fold.

As for B14, the Fold change binding came to 3.83 fold.

Turning to B15, the Fold change binding came out at 6.41 fold.
